Experiment [1] has as its target MmpL10‐mEGFP‐FLMsm (Mycobacterium smegmatis). Briefly: SEC; Superose 6 Increase 10/300 GL, 50 mM Tris-HCl pH 8, 150 mM NaCl, 3x CMC LMNG (m1 also in DDM and LDAO); apparent MW from a calibration curve. In general terms: In gel filtration, larger molecules generally elute earlier.
Experiment [2] shares this target. Briefly: negative-stain electron microscopy; top SEC peak fraction in LMNG at 0.5 μM, uranyl acetate 1%; low-resolution map, C1 symmetry, fitted with a trimeric AlphaFold v3 model.

What is called stoichiometry N is the number of molecules, sites or subunits per partner or assembly.

In the case of MmpL10‐mEGFP‐FLMsm (natural protein), the stoichiometry N in experiment [1] and in experiment [2] was 3 in each case.
